Test [1] deals with DU-145 human prostate carcinoma. The experiment in a line: MTT assay, DU-145 cells. Background: Formazan colour is commonly taken as a measure of viable cells.
In test [2] the test system is A-549 human lung carcinoma. Put plainly: MTT assay, A-549 cells.
The subject of a further test is HL-60 tumor cells. The note with it: proliferating HL-60 tumor cells; background art; cited from earlier work.
Test [3] deals with MDA-MB-231 human breast carcinoma. The experiment in a line: MTT assay, MDA-MB-231 cells.
A further test relates to proteasome. Conditions: Proc Natl Acad Sci USA 94:855-860, 1997; cited from earlier work.
Setting [4] is: A-549 cells, 10 μM LLnL with 0.1 to 1.0 μg/mL ranpirnase.

The values below come from patent publication US6290951A, “Alteration of the cell cycle in vivo, and particularly for inducing apoptosis of tumor cells” (Alfacell Corporation, priority 1998, dated 2001).

Square brackets hold non-standard residues; d marks the D form. Peptide text beside a SMILES is read from it. Nle = CCCC[C@H](N)C(=O)O A value given as a limit tells only on which side of the number the result lay.

Turning to `CC(=O)N[C@@H](CC(=O)O)C(=O)N[C@@H](CCC(=O)O)C(=O)N[C@H](C(=O)N[C@H](C=O)CC(=O)O)C(C)C` [Ac-DEVD-cho, N-acetyl-L-aspartyl-L-glutamyl-L-valinyl-L-aspartal, reference compound], the “increase of viability of cells versus LLnL alone” value in test [1] (DU-145 cells treated with LLnL, without ranpirnase, Ac-DEVD-cho 50 μpM) is on record as “approximately 4 fold”. Besides, in test [1] (DU-145 cells treated with ranpirnase and 25 μpM LLnL, Ac-DEVD-cho 50 μpM), the “increase of viability of cells” value is 2- to 3 fold.
In the case of `CC(=O)N[C@@H](CC(C)C)C(=O)N[C@H](C(=O)N[C@H](C=O)Cc1ccccc1)C(C)C` [LVP, N-acetyl-leucinyl-valinyl-phenylalaninal, reference compound], the “augmentation of the anti-tumor activity of ranpirnase” value in test [2] (A-549 cell line, peptide aldehyde added to ranpirnase) was “augmented”; in test [1] (DU-145 cell line, peptide aldehyde added to ranpirnase) it was “augmented”.
Consider `CCCC[C@@H](C=O)NC(=O)[C@H](CC(C)C)NC(=O)[C@H](CC(C)C)NC(C)=O` [LLnL, N-acetyl-leucinyl-leucinyl-norleucinal] (Ac-Leu-Leu-[Nle]-aldehyde), for which the cell cycle arrest result in the test with HL-60 tumor cells was “arrested the HL-60 cells in the G1 phase”.
Take `COc1cccc2c1C(=O)c1c(O)c3c(c(O)c1C2=O)C[C@@](O)(C(=O)CO)C[C@@H]3O[C@H]1C[C@H](N)[C@H](O)[C@H](C)O1` [doxorubicin, reference compound]: the “effect of adding doxorubicin on cell growth or cell viability” value in test [3] (MDA-MB-231 cells, ranpirnase plus 0.1 μg/mL doxorubicin plus 15 μM LLnL versus ranpirnase plus LLnL) is listed as “did not significantly decrease”.
For the molecule `CSCC[C@@H](C=O)NC(=O)[C@H](CC(C)C)NC(=O)[C@H](CC(C)C)NC(C)=O` [LLM, N-acetyl-leucinyl-leucinyl-methioninal, reference compound] (Ac-Leu-Leu-Met-aldehyde), the “inhibition of the activity of proteasome” value with proteasome is “does not significantly inhibit”. In addition, in test [3] (MDA-MB-231 cells, 25 μM LLM alone), the “effect on growth and viability versus untreated controls” value was “no significant effect”.

B1: ranpirnase: USAN generic name of the pharmaceutical described in U.S. Pat. No. 5,559,212, known by the registered trademark ONCONASE (protein, UniProt P22069 1-104, looked up)
Protein P-30: QDWLTFQKKHITNTRDVDCDNIMSTNLFHCKDKNTFIYSRPEPVKAICKGIIASKNVLTTSEFYLSDCNVTSRPCKYKLKKSTNKFCVTCENQAPVHFVGVGSC
As to B1, the “interaction of ranpirnase and LLnL” value in test [2] (A-549 cell line) was “synergistically”; in test [2] (setting [4]), “not synergistic”; in test [2] (A-549 cells, higher concentrations (15 to 35) μM of LLnL), “synergistic”; in test [1] (DU-145 cell line) it was “synergistically”; in test [3] (MDA-MB-231 cell line) it was “synergistically”. Also, the “anti-tumor activity of ranpirnase combined with LLnL versus each single agent (Newman-Keuls)” value in test [2] (A-549 cells), in test [1] (DU-145 cells) and in test [3] (MDA-MB-231 cells) was “significantly greater” in each case. Besides, in test [2] (setting [4]), the “effect of the combination versus ranpirnase alone” value is “greater than the effect of ranpirnase alone”. In addition, the “mean ED50 value for ranpirnase” value in test [2] (A-549 cells, in combination with 10 μM LLnL) is 1.356 µg/mL; in test [2] (A-549 cells, in combination with 15 μM LLnL), 0.640 µg/mL; in test [2] (A-549 cells, in combination with 25 μM LLnL), 0.060 µg/mL; in test [2] (A-549 cells, in combination with 35 μM LLnL), “less than 0.001 μg/mL”; in test [2] (A-549 cells, ranpirnase alone), 3.944 µg/mL; in test [3] (MDA-MB-231 cells, in combination with 10 μM LLnL), 0.037 µg/mL. The “mean ED50 value for ranpirnase” value in test [3] (MDA-MB-231 cells, in combination with 15 μM LLnL) is 0.022 µg/mL; in test [3] (MDA-MB-231 cells, in combination with 25 μM LLnL) it was 0.001 µg/mL; in test [3] (MDA-MB-231 cells, ranpirnase alone), 1.434 µg/mL. In addition, the “interaction of ranpirnase with LLnL” value in test [1] (DU-145 cells, all concentrations of ranpirnase, 10 to 25 μM LLnL) was “synergistic”; in test [3] (MDA-MB-231 cells, ranpirnase 0.1 to 10.0 μg/mL, LLnL 5 to 25 μM (particularly 10 to 25 μM)), “synergistically”. In addition, the “ED50 value for ranpirnase” value in test [1] (DU-145 cells, combined with 10 μM LLnL) is 1.231 µg/mL; in test [1] (DU-145 cells, combined with 15 μM LLnL), 0.001 µg/mL; in test [1] (DU-145 cells, combined with 25 μM LLnL), < 0.001 µg/mL; in test [1] (DU-145 cells, ranpirnase alone) it was 42.276 µg/mL. Moreover, in test [3] (MDA-MB-231 cells, 25 μM LLM), the “activity of combination of ranpirnase and LLM versus ranpirnase alone” value is “no significant difference”. Besides, the “decrease of mean ED50 value for ranpirnase” value in test [3] (MDA-MB-231 cells, additional treatment with 25 μM LLM) is recorded as “approximately two-fold”. The “decrease of mean ED50 value for ranpirnase versus ranpirnase alone” value in test [3] (MDA-MB-231 cells, in combination with 0.1 μg/mL (approximately 0.17 μM) doxorubicin) worked out at 2.2 fold.
